B1: cathepsin H (enzyme, UniProt P09668 116-335, looked up, species assumed)
Cathepsin H: YPPSVDWRKKGNFVSPVKNQGACGSCWTFSTTGALESAIAIATGKMLSLAEQQLVDCAQDFNNHGCQGGLPSQAFEYILYNKGIMGEDTYPYQGKDGYCKFQPGKAIGFVKDVANITIYDEEAMVEAVALYNPVSFAFEVTQDFMMYRTGIYSSTSCHKTPDKVNHAVLAVGYGEKNGIPYWIVKNSWGPQWGMNGYFLIERGKNMCGLAACASYPIPLV
B2: PrCP (prolylcarboxypeptidase) (enzyme, UniProt P42785 46-496, looked up, species assumed)
Lysosomal Pro-X carboxypeptidase: KNYSVLYFQQKVDHFGFNTVKTFNQRYLVADKYWKKNGGSILFYTGNEGDIIWFCNNTGFMWDVAEELKAMLVFAEHRYYGESLPFGDNSFKDSRHLNFLTSEQALADFAELIKHLKRTIPGAENQPVIAIGGSYGGMLAAWFRMKYPHMVVGALAASAPIWQFEDLVPCGVFMKIVTTDFRKSGPHCSESIHRSWDAINRLSNTGSGLQWLTGALHLCSPLTSQDIQHLKDWISETWVNLAMVDYPYASNFLQPLPAWPIKVVCQYLKNPNVSDSLLLQNIFQALNVYYNYSGQVKCLNISETATSSLGTLGWSYQACTEVVMPFCTNGVDDMFEPHSWNLKELSDDCFQQWGVRPRPSWITTMYGGKNISSHTNIVFSNGELDPWSGGGVTKDITDTLVAVTISEGAHHLDLRTKNALDPMSVLLARSLEVRHMKNWIRDFYDSAGKQH

Tested on: huHF(+)-DOX (huHF(+) protein nanoparticle-doxorubicin conjugate)
Sequence (chain, as listed by the source): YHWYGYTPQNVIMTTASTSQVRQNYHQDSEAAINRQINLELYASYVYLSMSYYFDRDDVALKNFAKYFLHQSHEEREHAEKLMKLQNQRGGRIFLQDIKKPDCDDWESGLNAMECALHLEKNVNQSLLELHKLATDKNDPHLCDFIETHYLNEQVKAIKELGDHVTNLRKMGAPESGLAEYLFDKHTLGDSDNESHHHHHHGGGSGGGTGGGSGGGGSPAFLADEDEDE

| Protein | cleavage of the conjugate and release of doxorubicin (native-PAGE, UV absorbance), enzyme in LPM mixture |
| --- | --- |
| B1 | it was observed that the peptide was not specifically cleaved thereby the drug was not selectively released |
| B2 | it was observed that the peptide was not specifically cleaved thereby the drug was not selectively released |
